Drawing on paper PMC11065751, this text covers stoichiometry N (Vangl2 per Vangl2-Long) and percent of Vangl2 depleted by IP of Vangl2-Long for 1 molecule.

Where “and” joins values, the source holds several entries; their conditions need not be identical. Equal values may be shown once.

For test [1], the target named is Vangl2-Long (70 kD isoform), endogenous mouse (mouse (endogenous in IMCD3)). The experiment in a line: co-IP; endogenous proteins; SKBR7 or IMCD3 cell lysates (50 mM Hepes-NaOH pH 8, 150 mM NaCl, 10% glycerol, 2 mM EDTA, 0.5% NP-40) incubated overnight at 4 °C with N-VGL2 pAb (VANGL2-Long specific) or mAb 36E3, protein A or G beads; blots with mAb 36E3 and mAb 19D5; 62 kD and 70 kD bands quantified for the ratio.

For test [2] the target is unchanged. Briefly: co-IP; serial IP of endogenous proteins from IMCD3 cell extracts: two successive rounds of IP with N-VGL2 pAb, then IP of the Vangl2-Long depleted lysate with a Vangl1-specific antibody.

B1: Vangl2 (canonical 62 kD isoform), endogenous mouse (natural protein)
chain: MDTESQYSGYSYKSGHSRSSRKHRDRRDRHRSKSRDGSRGDKSVTIQAPGEPLLDNESTRGDERDDNWGETTTVVTGTSEHSISHDDLTRIAKDMEDSVPLDCSRHLGVAAGAILALLSFLTPLAFLLLPPLLWREELEPCGTACEGLFISVAFKLLILLLGSWALFFRRPKASLPRVFVLRALLMVLVFLLVISYWLFYGVRILDARERSYQGVVQFAVSLVDALLFVHYLAVVLLELRQLQPQFTLKVVRSTDGASRFYNVGHLSIQRVAVWILEKYYHDFPVYNPALLNLPKSVLAKKVSGFKVYSLGEENSTNNSTGQSRAVIAAAARRRDNSHNEYYYEEAEHERRVRKRRARLVVAVEEAFTHIKRLQEEEQKNPREVMDPREAAQAIFASMARAMQKYLRTTKQQPYHTMESILQHLEFCITHDMTPKAFLERYLAAGPTIQYHKERWLAKQWTLVSEEPVTNGLKDGIVFLLKRQDFSLVVSTKKVPFFKLSEEFVDPKSHKFVMRLQSETSV
Regarding B1, the stoichiometry N (Vangl2 per Vangl2-Long) in test [1] was 3 and 4. In addition, the percent of Vangl2 depleted by IP of Vangl2-Long in test [2] was 50%.
